In paper PMC4514675, “Novel Apo E-Derived ABCA1 Agonist Peptide (CS-6253) Promotes Reverse Cholesterol Transport and Induces Formation of preβ-1 HDL In Vitro” (PLoS ONE, 2015):
Several values for one entry are separate records, joined by “and”; a condition that tells them apart may be missing. Identical values can stand only once.

Columns and labels:
ABCA1 [1] = target: T1, ABCA1 (Mus musculus, UniProt P41233); assay: ABCA1-mediated cholesterol efflux from cAMP-treated J774 macrophages; assay type: cell-based; settings: mean ± SD
T1 construct: host or cells: J774 mouse macrophages stimulated with Cpt-cAMP
T1 sequence (P41233 whole entry): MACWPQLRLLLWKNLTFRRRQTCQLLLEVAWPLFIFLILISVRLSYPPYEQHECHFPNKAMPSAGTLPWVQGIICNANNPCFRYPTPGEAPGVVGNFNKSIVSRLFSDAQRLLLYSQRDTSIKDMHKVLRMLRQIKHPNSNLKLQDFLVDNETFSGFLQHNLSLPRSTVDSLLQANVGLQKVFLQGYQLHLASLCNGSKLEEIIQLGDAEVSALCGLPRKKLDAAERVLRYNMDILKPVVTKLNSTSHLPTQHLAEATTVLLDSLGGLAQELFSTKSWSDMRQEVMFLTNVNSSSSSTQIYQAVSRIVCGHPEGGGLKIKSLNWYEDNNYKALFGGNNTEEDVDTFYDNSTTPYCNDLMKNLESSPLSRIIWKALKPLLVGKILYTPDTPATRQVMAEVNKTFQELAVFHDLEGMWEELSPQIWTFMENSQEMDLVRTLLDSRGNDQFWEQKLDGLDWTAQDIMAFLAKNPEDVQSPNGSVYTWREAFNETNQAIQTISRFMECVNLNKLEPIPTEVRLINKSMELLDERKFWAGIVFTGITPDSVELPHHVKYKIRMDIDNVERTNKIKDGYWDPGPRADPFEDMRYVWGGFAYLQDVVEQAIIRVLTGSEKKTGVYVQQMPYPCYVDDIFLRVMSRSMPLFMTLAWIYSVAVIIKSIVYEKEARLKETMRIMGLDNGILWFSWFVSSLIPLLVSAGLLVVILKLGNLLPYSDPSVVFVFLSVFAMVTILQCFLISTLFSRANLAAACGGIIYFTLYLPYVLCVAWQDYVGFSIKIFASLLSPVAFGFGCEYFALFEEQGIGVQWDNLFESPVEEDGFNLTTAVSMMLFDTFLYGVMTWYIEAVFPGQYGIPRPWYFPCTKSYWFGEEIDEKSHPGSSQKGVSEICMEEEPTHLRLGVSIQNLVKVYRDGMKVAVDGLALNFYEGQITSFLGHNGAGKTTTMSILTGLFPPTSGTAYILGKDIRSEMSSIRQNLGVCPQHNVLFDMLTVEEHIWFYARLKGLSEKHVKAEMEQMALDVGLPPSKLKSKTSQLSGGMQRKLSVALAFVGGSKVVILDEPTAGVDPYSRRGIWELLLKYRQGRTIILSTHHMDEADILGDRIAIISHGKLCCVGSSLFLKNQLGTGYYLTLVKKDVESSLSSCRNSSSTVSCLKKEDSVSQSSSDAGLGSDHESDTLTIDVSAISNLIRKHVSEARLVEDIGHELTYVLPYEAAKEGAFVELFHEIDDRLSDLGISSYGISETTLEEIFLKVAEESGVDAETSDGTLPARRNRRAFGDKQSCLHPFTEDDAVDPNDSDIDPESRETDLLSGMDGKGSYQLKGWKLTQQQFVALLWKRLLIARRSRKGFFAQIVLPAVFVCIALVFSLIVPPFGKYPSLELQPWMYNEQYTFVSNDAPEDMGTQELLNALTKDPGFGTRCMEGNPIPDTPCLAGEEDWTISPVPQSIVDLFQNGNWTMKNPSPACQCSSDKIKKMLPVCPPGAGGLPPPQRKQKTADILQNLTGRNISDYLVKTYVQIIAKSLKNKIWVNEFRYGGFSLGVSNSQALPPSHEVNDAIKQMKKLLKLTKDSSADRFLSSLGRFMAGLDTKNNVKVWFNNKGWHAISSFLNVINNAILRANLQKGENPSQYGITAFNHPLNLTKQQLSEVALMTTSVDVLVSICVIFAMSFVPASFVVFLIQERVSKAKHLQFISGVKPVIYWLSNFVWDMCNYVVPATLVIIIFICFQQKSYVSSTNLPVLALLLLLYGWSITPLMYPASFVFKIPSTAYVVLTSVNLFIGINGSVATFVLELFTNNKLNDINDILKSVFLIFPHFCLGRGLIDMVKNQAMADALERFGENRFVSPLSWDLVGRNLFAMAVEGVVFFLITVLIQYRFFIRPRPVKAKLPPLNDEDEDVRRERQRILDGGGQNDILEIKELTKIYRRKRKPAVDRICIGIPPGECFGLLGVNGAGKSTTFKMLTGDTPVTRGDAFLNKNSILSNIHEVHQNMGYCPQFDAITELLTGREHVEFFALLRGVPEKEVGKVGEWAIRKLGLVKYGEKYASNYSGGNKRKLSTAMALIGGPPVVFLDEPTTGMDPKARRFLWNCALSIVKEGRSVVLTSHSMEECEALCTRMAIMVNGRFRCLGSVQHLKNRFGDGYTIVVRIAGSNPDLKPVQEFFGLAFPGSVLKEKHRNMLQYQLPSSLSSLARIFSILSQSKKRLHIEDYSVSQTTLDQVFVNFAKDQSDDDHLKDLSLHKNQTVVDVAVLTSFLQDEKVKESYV
From the text: (§1) BHK cells stably transfected with an ABCA1 or ABCG1 expression vector that is mifepristone inducible and cells transfected with the same vector lacking the ABCA1 cDNA insert (mutant or mock-transfected) were generously provided by the late Dr. John F. Oram from the Department of Medicine, University of Washington, and were characterized and cultured as previously described. […] Mouse-derived peritoneal macrophages J774 were purchased from American Tissue Culture Collection (ATCC TIB-67, Cederlane, Burlington, Canada). For induction of ABCA1, BHK cells were incubated for 18–20 h with 10 nM mifepristone. J774 macrophages were stimulated with 0.3 mM Cpt-cAMP 8-(4-Chlorophenylthio)-cyclic adenosine monophosphate (Sigma). […]
All cell culture incubations were performed at 37 °C in a humidified 5% CO2. […] Media were collected, centrifuged at 3.000 g for 5min to remove cell debris, and counted for radioactivity. […] Further, 0.2 ml cells lysates were mixed with scintillation liquid and counted for radioactivity. […] Cholesterol efflux was calculated according to the following formula as the percentage of ^3H-cpm medium/(^3H-cpm medium + ^3H-cpm cells) x 100%. Efflux efficiency (Km) was calculated using the Michaelis-Menten equation (Graph-Pad Prism6 software) respectively (S1, S8 and S9 Figs.)

BHK-mock cells = assay: Cholesterol efflux from control cells (unstimulated BHK-ABCA1, BHK-mock), media; assay type: cell-based, hamster
From the text: as §1, with “mifepristone.” for “mifepristone. J774 macrophages were stimulated with 0.3 mM Cpt-cAMP 8-(4-Chlorophenylthio)-cyclic adenosine monophosphate (Sigma).”
Fig 2 Effect of CS-6253 treatment on cholesterol efflux. […] Cholesterol efflux from either ABCA1 cells or control cells to apo A-I (closed circles), and CS-6253 (closed triangles) was determined at the indicated time points. […] ABCA1 was detected from THP-1 foam cells lysis at 4°C with lysis buffer containing 0.5% n-dodecylmaltoside in the presence of a protease inhibitor mixture followed by low speed centrifugation to remove cell debris. Protein concentration was determined by standard assay (Bio-Rad). […] After electrophoresis, ABCA1 was detected by an anti-ABCA1 antibody. […] 3[H]-FC and 3[H]-CE were separated by TLC and located by exposure to iodine vapor, and were scraped off into liquid scintillating vials and assayed for radioactivity. […]

ABCA1 [2] = target: ABCA1 (Homo sapiens, UniProt O95477); assay: ABCA1-mediated phospholipid efflux from BHK-ABCA1 cells; assay type: cell-based; set-up: expressed in transfected cells; host or cells: BHK cells, stably transfected, induced with 10 nM mifepristone; settings: mean of triplicates ± SD, n = 3
Chain of ABCA1 (Homo sapiens, UniProt O95477) (O95477 whole entry): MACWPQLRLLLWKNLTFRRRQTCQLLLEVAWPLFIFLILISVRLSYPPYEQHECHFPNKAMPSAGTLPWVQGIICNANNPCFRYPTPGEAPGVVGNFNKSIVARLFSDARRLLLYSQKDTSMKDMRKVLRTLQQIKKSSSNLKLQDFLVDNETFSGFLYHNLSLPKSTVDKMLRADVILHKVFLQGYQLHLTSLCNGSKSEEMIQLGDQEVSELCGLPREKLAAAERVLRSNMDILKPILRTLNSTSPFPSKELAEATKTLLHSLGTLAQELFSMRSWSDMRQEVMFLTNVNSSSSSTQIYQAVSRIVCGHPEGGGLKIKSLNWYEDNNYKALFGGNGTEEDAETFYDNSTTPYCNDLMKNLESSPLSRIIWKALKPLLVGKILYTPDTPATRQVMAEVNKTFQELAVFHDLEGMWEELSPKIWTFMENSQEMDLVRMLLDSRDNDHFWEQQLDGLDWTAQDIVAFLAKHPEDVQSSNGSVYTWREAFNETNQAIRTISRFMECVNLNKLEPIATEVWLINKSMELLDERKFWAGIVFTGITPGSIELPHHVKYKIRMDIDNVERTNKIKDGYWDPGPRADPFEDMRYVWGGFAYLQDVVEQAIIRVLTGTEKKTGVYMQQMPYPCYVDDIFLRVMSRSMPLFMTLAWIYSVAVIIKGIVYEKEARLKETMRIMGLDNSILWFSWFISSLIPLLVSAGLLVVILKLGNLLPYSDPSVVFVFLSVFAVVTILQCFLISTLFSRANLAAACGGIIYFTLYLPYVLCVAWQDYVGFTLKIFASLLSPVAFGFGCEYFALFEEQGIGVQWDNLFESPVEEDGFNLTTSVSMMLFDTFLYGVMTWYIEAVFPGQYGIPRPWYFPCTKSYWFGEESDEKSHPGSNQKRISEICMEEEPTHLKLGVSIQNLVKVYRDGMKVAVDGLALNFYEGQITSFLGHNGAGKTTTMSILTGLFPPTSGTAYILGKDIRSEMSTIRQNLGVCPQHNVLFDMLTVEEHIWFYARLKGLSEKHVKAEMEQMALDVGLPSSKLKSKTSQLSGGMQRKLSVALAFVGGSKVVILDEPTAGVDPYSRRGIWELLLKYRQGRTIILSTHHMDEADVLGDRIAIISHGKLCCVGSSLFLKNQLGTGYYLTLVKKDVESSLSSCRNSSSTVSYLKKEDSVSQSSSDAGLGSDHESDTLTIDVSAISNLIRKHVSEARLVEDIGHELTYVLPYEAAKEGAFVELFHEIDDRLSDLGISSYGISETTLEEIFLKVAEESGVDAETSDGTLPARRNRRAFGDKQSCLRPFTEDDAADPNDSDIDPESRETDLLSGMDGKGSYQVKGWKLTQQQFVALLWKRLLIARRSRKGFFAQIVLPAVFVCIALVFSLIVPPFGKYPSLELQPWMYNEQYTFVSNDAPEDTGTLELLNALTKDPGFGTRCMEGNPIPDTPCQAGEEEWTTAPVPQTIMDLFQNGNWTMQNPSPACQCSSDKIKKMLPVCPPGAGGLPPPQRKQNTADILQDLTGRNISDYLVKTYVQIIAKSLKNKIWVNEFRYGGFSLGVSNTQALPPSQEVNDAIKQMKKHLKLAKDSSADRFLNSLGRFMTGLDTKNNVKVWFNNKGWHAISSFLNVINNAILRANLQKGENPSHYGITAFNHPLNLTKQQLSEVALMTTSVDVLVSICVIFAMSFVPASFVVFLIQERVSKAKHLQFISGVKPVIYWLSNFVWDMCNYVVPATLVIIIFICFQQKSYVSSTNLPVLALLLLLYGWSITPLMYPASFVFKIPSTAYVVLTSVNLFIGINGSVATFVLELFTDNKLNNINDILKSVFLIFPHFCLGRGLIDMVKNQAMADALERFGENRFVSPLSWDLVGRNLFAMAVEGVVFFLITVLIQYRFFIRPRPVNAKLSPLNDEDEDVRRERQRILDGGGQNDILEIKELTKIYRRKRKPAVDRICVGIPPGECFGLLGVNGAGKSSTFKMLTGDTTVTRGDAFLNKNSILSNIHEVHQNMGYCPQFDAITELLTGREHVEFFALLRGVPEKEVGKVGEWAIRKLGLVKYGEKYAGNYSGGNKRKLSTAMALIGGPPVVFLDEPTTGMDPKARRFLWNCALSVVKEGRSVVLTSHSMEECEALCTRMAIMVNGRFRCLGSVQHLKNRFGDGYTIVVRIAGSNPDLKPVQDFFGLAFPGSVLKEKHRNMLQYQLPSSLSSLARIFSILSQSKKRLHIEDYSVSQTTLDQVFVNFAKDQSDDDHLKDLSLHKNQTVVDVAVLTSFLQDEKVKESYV
Procedure: Supplementary file pone.0131997.s003.tif: S2 Fig Phospholipid efflux from BHK cells expressing ABCA1 to increasing concentrations of lipid free CS-6253 and apo A-I. Baby hamster kidney (BHK) cells were labeled with ^3[H]-choline. ABCA1 expression was induced by treating BHK cells with 10 nM mifepristone. Cells were then changed into fresh DMEM medium [no apolipoprotein A-I (apoA-I)] and incubated with apoA-I or CS-6253 (0.96 uM). Medium was collected after 2 h. […] Results represent the mean of triplicates ± SD, n = 3. (TIF) Click here for additional data file.
Cells were seeded (50×10^3 cells) in 24 well plates containing DMEM plus 10% FBS with 3 μCi/ml ^3H-choline chloride (Perkin Elmer, Norwalk, Connecticut), for 72 hours as previously reported with minor changes). Cells were then put into induction medium for 18–20 h (10 nM mifepristone). This was followed by incubation with increased molar doses of apo A-I and CS-6253 for 2 h at 37°C. Efflux medium was collected, and cellular lipids were extracted with hexane/isopropanol (3:2 v/v), while total phospholipids from the medium were extracted in chloroform /methanol (2:1 v/v). Efflux was determined as percent of total ^3[H] Phospholipids in the medium. All results were conformed at least twice. (S2 Fig.)

apolipoprotein A-I [apo A-I]
Km, cholesterol efflux (ABCA1 [1]; 6 h): 3.82±1.81 μg/ml and 0.15±0.05 μM | Vmax, cholesterol efflux (ABCA1 [1]): 6.90±1.06 % efflux/6h | maximum cholesterol efflux by diffusion (BHK-mock cells; BHK mock and unstimulated BHK-ABCA1 cells): 0.75% | cholesterol efflux from control cells (BHK-mock cells; unstimulated BHK-ABCA1 and BHK-mock, CS-6253 30 μg/ml, apo A-I 10 μg/ml): no significant cholesterol efflux | Km (ABCA1 [2]; 2 h): 0.14 ± 0.02 µM | Km, phospholipid efflux (ABCA1 [2]; 2 h): 3.65 ± 0.49 µg/mL | Vmax, phospholipid efflux (ABCA1 [2]): 0.77±0.02 % efflux/2h
